Assays:
Test in all cases: ELISA, lectin-captured E1E2 lysate, Ab 1 ug/ml
[1] = target: E1E2 complex (H77) with E1 mutation W320A (HCV genotype 1a, isolate H77) (UniProt P27958)
[2] = target: E1E2 complex (H77) with E1 mutation H222A (HCV genotype 1a, isolate H77) (UniProt P27958)
[3] = target: E1E2 complex (H77) with E2 mutation P619A (HCV genotype 1a, isolate H77) (UniProt P27958)
[4] = target: E1E2 complex (H77) with E1 mutation V194A (HCV genotype 1a, isolate H77) (UniProt P27958)
[5] = target: E1E2 complex (H77) with E1 mutation R339A (HCV genotype 1a, isolate H77) (UniProt P27958)
[6] = target: E1E2 complex (H77) with E1 mutation R317A (HCV genotype 1a, isolate H77) (UniProt P27958)
[7] = target: E1E2 complex (H77) with E1 mutation D206A (HCV genotype 1a, isolate H77) (UniProt P27958)
[8] = target: E1E2 complex (H77) with E1 mutation T204A (HCV genotype 1a, isolate H77) (UniProt P27958)
[9] = target: E1E2 complex (H77) with E1 mutation D346A (HCV genotype 1a, isolate H77) (UniProt P27958)
[10] = target: E1E2 complex (H77) with E1 mutation N305A/N234A (HCV genotype 1a, isolate H77) (UniProt P27958)
[11] = target: E1E2 complex (H77) with E1 mutation W326A (HCV genotype 1a, isolate H77) (UniProt P27958)
[12] = target: E1E2 complex (H77) with E2 mutation Y618A (HCV genotype 1a, isolate H77) (UniProt P27958)
[13] = target: E1E2 complex (H77) with E1 mutation S294A (HCV genotype 1a, isolate H77) (UniProt P27958)
[14] = target: E1E2 complex (H77) with E2 mutation G635A (HCV genotype 1a, isolate H77) (UniProt P27958)
[15] = target: E1E2 complex (H77) with E2 mutation L427A (HCV genotype 1a, isolate H77) (UniProt P27958)
[16] = target: E1E2 complex (H77) with E1 mutation N209A (HCV genotype 1a, isolate H77) (UniProt P27958)
[17] = target: E1E2 complex (H77) with E1 mutation N325A (HCV genotype 1a, isolate H77) (UniProt P27958)
[18] = target: E1E2 complex (H77) with E1 mutation S327A (HCV genotype 1a, isolate H77) (UniProt P27958)
[19] = target: E1E2 complex (H77) with E2 mutation F442A (HCV genotype 1a, isolate H77) (UniProt P27958)
[20] = target: E1E2 complex (H77) with E2 mutation Y624A (HCV genotype 1a, isolate H77) (UniProt P27958)
[21] = target: E1E2 complex (H77) with E1 mutation T329A (HCV genotype 1a, isolate H77) (UniProt P27958)
[22] = target: E1E2 complex (H77) with E2 mutation G634A (HCV genotype 1a, isolate H77) (UniProt P27958)
[23] = target: E1E2 complex (H77) with E1 mutation Y192A (HCV genotype 1a, isolate H77) (UniProt P27958)
[24] = target: E1E2 complex (H77) with E1 mutation G354A (HCV genotype 1a, isolate H77) (UniProt P27958)
[25] = target: E1E2 complex (H77) with E1 mutation G225A (HCV genotype 1a, isolate H77) (UniProt P27958)
[26] = target: E1E2 complex (H77) with E1 mutation M318A (HCV genotype 1a, isolate H77) (UniProt P27958)
[27] = target: E1E2 complex (H77) with E1 mutation N196A/N234A (HCV genotype 1a, isolate H77) (UniProt P27958)
[28] = target: E1E2 complex (H77) with E1 mutation N305A/N209A (HCV genotype 1a, isolate H77) (UniProt P27958)
[29] = target: E1E2 complex (H77) with E2 mutation F447A (HCV genotype 1a, isolate H77) (UniProt P27958)

mouse anti-E1 MAb A4 (antibody)
Binding relative to wt (%) [1]: 105% | Binding relative to wt (%) [2]: 132% | Binding relative to wt (%) [3]: 108% | Binding relative to wt (%) [4]: 160% | Binding relative to wt (%) [5]: 87% | Binding relative to wt (%) [6]: 95% | Binding relative to wt (%) [7]: 81% | Binding relative to wt (%) [8]: 102% | Binding relative to wt (%) [9]: 87% | Binding relative to wt (%) [10]: 109% | Binding relative to wt (%) [11]: 72% | Binding relative to wt (%) [12]: 157% | Binding relative to wt (%) [13]: 99% | Binding relative to wt (%) [14]: 109% | Binding relative to wt (%) [15]: 102% | Binding relative to wt (%) [16]: 119% | Binding relative to wt (%) [17]: 83% | Binding relative to wt (%) [18]: 85% | Binding relative to wt (%) [19]: 90% | Binding relative to wt (%) [20]: 121% | Binding relative to wt (%) [21]: 89% | Binding relative to wt (%) [22]: 112% | Binding relative to wt (%) [23]: 134% | Binding relative to wt (%) [24]: 105% | Binding relative to wt (%) [25]: 106% | Binding relative to wt (%) [26]: 97% | Binding relative to wt (%) [27]: 71% | Binding relative to wt (%) [28]: 117% | Binding relative to wt (%) [29]: 98%

Reference: patent publication US20110311550A1
